Results as given in the Human Domainome abundance scans (Beltran et al. 2025).
± gives the uncertainty stated by the source.

B1: TOX high mobility group box family member 3, residues 256 to 323; numbered along this chain, O15405 (parent)
chain: QKPVSAYALFFRDTQAAIKGQNPNATFGEVSKIVASMWDSLGEEQKQVYKRKTEAAKKEYLKALAAYR

Variants of: B1
Experiment: abundance fitness (aPCA) (normalised: wild type 0, dead -1); higher = more abundant; growth selection in yeast, the domain comes from the species named
Conditions: Homo sapiens

Variant	abundance fitness
QKPVSAYALFFRDTQAAIKGQNPNATFGEVSKIVASMWDSLGEEQKQVYKRKTEAQKKEYLKALAAYR [A56Q]	-0.017 ± 0.07
QKPVSAYALFFRDTQAAIKGQNPNATFGEVSKIVASMWDSLGEEQKQVYKRKTEARKKEYLKALAAYR [A56R]	-0.201 ± 0.054
QKPVSAYALFFRDTQAAIKGQNPNATFGEVSKIVASMWDSLGEEQKQVYKRKTEASKKEYLKALAAYR [A56S]	-0.146 ± 0.052
QKPVSAYALFFRDTQAAIKGQNPNATFGEVSKIVASMWDSLGEEQKQVYKRKTEAVKKEYLKALAAYR [A56V]	-0.054 ± 0.074
QKPVSAYALFFRDTQAAIKGQNPNATFGEVSKIVASMWDSLGEEQKQVYKRKTEAWKKEYLKALAAYR [A56W]	-0.463 ± 0.07
QKPVSAYALFFRDTQAAIKGQNPNATFGEVSKIVASMWDSLGEEQKQVYKRKTEAYKKEYLKALAAYR [A56Y]	-0.102 ± 0.17
QKPVSAYALFFRDTQAAIKGQNPNATFGEVSKIVASMWDSLGEEQKQVYKRKTEAAAKEYLKALAAYR [K57A]	-0.034 ± 0.069
QKPVSAYALFFRDTQAAIKGQNPNATFGEVSKIVASMWDSLGEEQKQVYKRKTEAACKEYLKALAAYR [K57C]	-0.275 ± 0.064
QKPVSAYALFFRDTQAAIKGQNPNATFGEVSKIVASMWDSLGEEQKQVYKRKTEAADKEYLKALAAYR [K57D]	0.025 ± 0.063
QKPVSAYALFFRDTQAAIKGQNPNATFGEVSKIVASMWDSLGEEQKQVYKRKTEAAFKEYLKALAAYR [K57F]	-0.23 ± 0.086
QKPVSAYALFFRDTQAAIKGQNPNATFGEVSKIVASMWDSLGEEQKQVYKRKTEAAGKEYLKALAAYR [K57G]	-0.125 ± 0.053
QKPVSAYALFFRDTQAAIKGQNPNATFGEVSKIVASMWDSLGEEQKQVYKRKTEAALKEYLKALAAYR [K57L]	-0.346 ± 0.056
QKPVSAYALFFRDTQAAIKGQNPNATFGEVSKIVASMWDSLGEEQKQVYKRKTEAAMKEYLKALAAYR [K57M]	0.036 ± 0.088
QKPVSAYALFFRDTQAAIKGQNPNATFGEVSKIVASMWDSLGEEQKQVYKRKTEAANKEYLKALAAYR [K57N]	0.042 ± 0.077
QKPVSAYALFFRDTQAAIKGQNPNATFGEVSKIVASMWDSLGEEQKQVYKRKTEAAPKEYLKALAAYR [K57P]	-0.165 ± 0.065
QKPVSAYALFFRDTQAAIKGQNPNATFGEVSKIVASMWDSLGEEQKQVYKRKTEAAQKEYLKALAAYR [K57Q]	-0.021 ± 0.09
QKPVSAYALFFRDTQAAIKGQNPNATFGEVSKIVASMWDSLGEEQKQVYKRKTEAARKEYLKALAAYR [K57R]	-0.164 ± 0.053
QKPVSAYALFFRDTQAAIKGQNPNATFGEVSKIVASMWDSLGEEQKQVYKRKTEAASKEYLKALAAYR [K57S]	-0.052 ± 0.05
QKPVSAYALFFRDTQAAIKGQNPNATFGEVSKIVASMWDSLGEEQKQVYKRKTEAATKEYLKALAAYR [K57T]	-0.093 ± 0.063
QKPVSAYALFFRDTQAAIKGQNPNATFGEVSKIVASMWDSLGEEQKQVYKRKTEAAVKEYLKALAAYR [K57V]	-0.252 ± 0.057

Variant	abundance fitness
QKPVSAYALFFRDTQAAIKGQNPNATFGEVSKIVASMWDSLGEEQKQVYKRKTEAAWKEYLKALAAYR [K57W]	-0.381 ± 0.11
QKPVSAYALFFRDTQAAIKGQNPNATFGEVSKIVASMWDSLGEEQKQVYKRKTEAAYKEYLKALAAYR [K57Y]	-0.282 ± 0.091
QKPVSAYALFFRDTQAAIKGQNPNATFGEVSKIVASMWDSLGEEQKQVYKRKTEAAKAEYLKALAAYR [K58A]	0.016 ± 0.045
QKPVSAYALFFRDTQAAIKGQNPNATFGEVSKIVASMWDSLGEEQKQVYKRKTEAAKCEYLKALAAYR [K58C]	-0.095 ± 0.075
QKPVSAYALFFRDTQAAIKGQNPNATFGEVSKIVASMWDSLGEEQKQVYKRKTEAAKDEYLKALAAYR [K58D]	-0.01 ± 0.094
QKPVSAYALFFRDTQAAIKGQNPNATFGEVSKIVASMWDSLGEEQKQVYKRKTEAAKEEYLKALAAYR [K58E]	0.044 ± 0.097
QKPVSAYALFFRDTQAAIKGQNPNATFGEVSKIVASMWDSLGEEQKQVYKRKTEAAKGEYLKALAAYR [K58G]	-0.068 ± 0.051
QKPVSAYALFFRDTQAAIKGQNPNATFGEVSKIVASMWDSLGEEQKQVYKRKTEAAKHEYLKALAAYR [K58H]	-0.242 ± 0.15
QKPVSAYALFFRDTQAAIKGQNPNATFGEVSKIVASMWDSLGEEQKQVYKRKTEAAKIEYLKALAAYR [K58I]	-0.204 ± 0.13
QKPVSAYALFFRDTQAAIKGQNPNATFGEVSKIVASMWDSLGEEQKQVYKRKTEAAKLEYLKALAAYR [K58L]	-0.135 ± 0.057
QKPVSAYALFFRDTQAAIKGQNPNATFGEVSKIVASMWDSLGEEQKQVYKRKTEAAKMEYLKALAAYR [K58M]	-0.078 ± 0.066
QKPVSAYALFFRDTQAAIKGQNPNATFGEVSKIVASMWDSLGEEQKQVYKRKTEAAKNEYLKALAAYR [K58N]	-0.089 ± 0.088
QKPVSAYALFFRDTQAAIKGQNPNATFGEVSKIVASMWDSLGEEQKQVYKRKTEAAKPEYLKALAAYR [K58P]	-0.113 ± 0.064
QKPVSAYALFFRDTQAAIKGQNPNATFGEVSKIVASMWDSLGEEQKQVYKRKTEAAKQEYLKALAAYR [K58Q]	0.039 ± 0.072
QKPVSAYALFFRDTQAAIKGQNPNATFGEVSKIVASMWDSLGEEQKQVYKRKTEAAKREYLKALAAYR [K58R]	-0.043 ± 0.049
QKPVSAYALFFRDTQAAIKGQNPNATFGEVSKIVASMWDSLGEEQKQVYKRKTEAAKSEYLKALAAYR [K58S]	-0.051 ± 0.066
QKPVSAYALFFRDTQAAIKGQNPNATFGEVSKIVASMWDSLGEEQKQVYKRKTEAAKTEYLKALAAYR [K58T]	-0.079 ± 0.059
QKPVSAYALFFRDTQAAIKGQNPNATFGEVSKIVASMWDSLGEEQKQVYKRKTEAAKVEYLKALAAYR [K58V]	0.03 ± 0.061
QKPVSAYALFFRDTQAAIKGQNPNATFGEVSKIVASMWDSLGEEQKQVYKRKTEAAKWEYLKALAAYR [K58W]	-0.351 ± 0.083
QKPVSAYALFFRDTQAAIKGQNPNATFGEVSKIVASMWDSLGEEQKQVYKRKTEAAKYEYLKALAAYR [K58Y]	-0.279 ± 0.095
